According to patent publication US20200115416A1 (REGENTS OF THE UNIVERSITY OF MINNESOTA, published 2020):
Square brackets hold non-standard residues; d marks the D form. hPhe = N[C@@H](CCc1ccccc1)C(=O)O

Tests used:
Test in all cases: cell-based or functional assay
[1] = molecular target: mouse melanocortin-5 receptor (mouse, UniProt P41149 1-325)
[2] = molecular target: mouse melanocortin-3 receptor (mouse, UniProt P33033 1-323)
[3] = molecular target: T1, mouse melanocortin-1 receptor (mouse, UniProt Q01727 1-315)
[4] = molecular target: mouse melanocortin-4 receptor (mouse, UniProt P56450 1-332)
[5] = molecular target: T1, mouse melanocortin-1 receptor; remark: listed apart in the source

Chain of mouse melanocortin-4 receptor (P56450 whole entry): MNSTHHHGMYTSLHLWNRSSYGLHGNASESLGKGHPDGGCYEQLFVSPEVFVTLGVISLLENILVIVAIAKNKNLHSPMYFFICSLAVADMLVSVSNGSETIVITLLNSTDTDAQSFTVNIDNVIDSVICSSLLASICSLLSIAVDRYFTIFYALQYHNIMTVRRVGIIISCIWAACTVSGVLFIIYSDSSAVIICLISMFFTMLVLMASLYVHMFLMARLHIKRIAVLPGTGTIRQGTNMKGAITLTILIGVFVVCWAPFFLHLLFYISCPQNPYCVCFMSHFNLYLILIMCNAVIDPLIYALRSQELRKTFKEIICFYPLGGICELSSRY
Chain of mouse melanocortin-5 receptor (P41149 whole entry): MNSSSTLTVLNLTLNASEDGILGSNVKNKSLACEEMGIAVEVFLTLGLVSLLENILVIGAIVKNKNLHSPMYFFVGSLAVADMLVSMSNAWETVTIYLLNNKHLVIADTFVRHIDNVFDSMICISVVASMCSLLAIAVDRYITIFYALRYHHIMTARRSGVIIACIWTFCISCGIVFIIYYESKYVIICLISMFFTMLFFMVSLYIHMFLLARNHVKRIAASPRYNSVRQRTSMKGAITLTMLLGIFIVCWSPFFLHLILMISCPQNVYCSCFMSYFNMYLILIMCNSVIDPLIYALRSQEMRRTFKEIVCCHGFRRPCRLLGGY
Chain of mouse melanocortin-3 receptor (P33033 whole entry): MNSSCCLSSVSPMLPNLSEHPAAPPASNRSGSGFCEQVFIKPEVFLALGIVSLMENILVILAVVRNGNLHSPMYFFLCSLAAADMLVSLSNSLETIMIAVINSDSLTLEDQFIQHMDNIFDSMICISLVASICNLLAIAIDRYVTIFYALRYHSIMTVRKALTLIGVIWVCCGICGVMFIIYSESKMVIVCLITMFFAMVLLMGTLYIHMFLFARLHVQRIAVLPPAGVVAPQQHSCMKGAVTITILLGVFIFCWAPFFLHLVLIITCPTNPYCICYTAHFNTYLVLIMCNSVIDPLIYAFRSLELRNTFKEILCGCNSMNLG
T1 sequence (Q01727 whole entry): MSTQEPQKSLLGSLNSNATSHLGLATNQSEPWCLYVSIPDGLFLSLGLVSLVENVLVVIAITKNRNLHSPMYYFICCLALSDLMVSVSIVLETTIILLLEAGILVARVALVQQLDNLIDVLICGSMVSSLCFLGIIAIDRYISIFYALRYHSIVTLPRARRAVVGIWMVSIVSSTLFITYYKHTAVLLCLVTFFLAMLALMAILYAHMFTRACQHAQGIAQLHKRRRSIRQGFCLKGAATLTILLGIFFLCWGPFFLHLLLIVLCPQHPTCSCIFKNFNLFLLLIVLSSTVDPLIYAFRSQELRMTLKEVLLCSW

Binder	inverse agonist apparent potency [1]	inverse agonist, % decrease from basal cAMP [1]	agonist EC50 (cAMP AlphaScreen) [2]	antagonist pA2 (Schild, agonist NDP-MSH) [2]	agonist EC50 (cAMP AlphaScreen) [3]	agonist EC50 (cAMP AlphaScreen) [1]	agonist EC50 (cAMP AlphaScreen) [4]	antagonist pA2 (Schild, agonist NDP-MSH) [4]	% maximal NDP-MSH response at 100 µM (cAMP AlphaScreen) [3]	% receptor stimulation at 100 µM (cAMP AlphaScreen) [5]	% maximal NDP-MSH response at 100 µM (cAMP AlphaScreen) [2]	% maximal NDP-MSH response at 100 µM (cAMP AlphaScreen) [4]	% maximal NDP-MSH response at 100 µM (cAMP AlphaScreen) [1]	inverse agonist, % change from basal cAMP at 100 µM [1]
cyclo(PRFFHAF[dP]) (SMILES C[C@@H]1NC(=O)[C@H](Cc2c[nH]cn2)NC(=O)[C@H](Cc2ccccc2)NC(=O)[C@H](Cc2ccccc2)NC(=O)[C@H](CCCNC(=N)N)NC(=O)[C@@H]2CCCN2C(=O)[C@H]2CCCN2C(=O)[C@H](Cc2ccccc2)NC1=O) [c[Pro-Arg-Phe-Phe-His-Ala-Phe-DPro]]	0.01 µM	-15%	> 100 µM	6.46	> 100 µM									
cyclo(PRFFFAF[dP]) (SMILES C[C@@H]1NC(=O)[C@H](Cc2ccccc2)NC(=O)[C@H](Cc2ccccc2)NC(=O)[C@H](Cc2ccccc2)NC(=O)[C@H](CCCNC(=N)N)NC(=O)[C@@H]2CCCN2C(=O)[C@H]2CCCN2C(=O)[C@H](Cc2ccccc2)NC1=O) [c[Pro-Arg-Phe-Phe-Phe-Ala-Phe-DPro]]			> 100 µM	< 5.5	> 100 µM	> 100 µM	> 100 µM	6.63						
cyclo(PRFFVAF[dP]) [c[Pro-Arg-Phe-Phe-Val-Ala-Phe-DPro]]	0.51 µM	-25%	> 100 µM	< 5.5			> 100 µM	5.9	55%					
cyclo(PRF[hPhe]NAF[dP]) [c[Pro-Arg-Phe-hPhe-Asn-Ala-Phe-DPro]]										35%				
cyclo(PRFFWAF[dP]) (SMILES C[C@@H]1NC(=O)[C@H](Cc2c[nH]c3ccccc23)NC(=O)[C@H](Cc2ccccc2)NC(=O)[C@H](Cc2ccccc2)NC(=O)[C@H](CCCNC(=N)N)NC(=O)[C@@H]2CCCN2C(=O)[C@H]2CCCN2C(=O)[C@H](Cc2ccccc2)NC1=O) [c[Pro-Arg-Phe-Phe-Trp-Ala-Phe-DPro]]	0.15 µM	-20%		5.7				6.81	80%		40%	50%		
cyclo(PRFFNFF[dP]) (SMILES N=C(N)NCCC[C@@H]1NC(=O)[C@@H]2CCCN2C(=O)[C@H]2CCCN2C(=O)[C@H](Cc2ccccc2)NC(=O)[C@H](Cc2ccccc2)NC(=O)[C@H](CC(N)=O)NC(=O)[C@H](Cc2ccccc2)NC(=O)[C@H](Cc2ccccc2)NC1=O) [c[Pro-Arg-Phe-Phe-Asn-Phe-Phe-DPro]]				5.72				5.71	70%		35%	35%	25%	
cyclo(PRFFNKF[dP]) (SMILES N=C(N)NCCC[C@@H]1NC(=O)[C@@H]2CCCN2C(=O)[C@H]2CCCN2C(=O)[C@H](Cc2ccccc2)NC(=O)[C@H](CCCCN)NC(=O)[C@H](CC(N)=O)NC(=O)[C@H](Cc2ccccc2)NC(=O)[C@H](Cc2ccccc2)NC1=O) [c[Pro-Arg-Phe-Phe-Asn-Lys-Phe-DPro]]				< 5.5			> 100 µM	6.11	60%		45%		45%	
cyclo(PRFFNLF[dP]) (SMILES CC(C)C[C@@H]1NC(=O)[C@H](CC(N)=O)NC(=O)[C@H](Cc2ccccc2)NC(=O)[C@H](Cc2ccccc2)NC(=O)[C@H](CCCNC(=N)N)NC(=O)[C@@H]2CCCN2C(=O)[C@H]2CCCN2C(=O)[C@H](Cc2ccccc2)NC1=O) [c[Pro-Arg-Phe-Phe-Asn-Leu-Phe-DPro]]				< 5.5		> 100 µM		6.18	80%		25%	25%		
cyclo(PRFFNEF[dP]) (SMILES N=C(N)NCCC[C@@H]1NC(=O)[C@@H]2CCCN2C(=O)[C@H]2CCCN2C(=O)[C@H](Cc2ccccc2)NC(=O)[C@H](CCC(=O)O)NC(=O)[C@H](CC(N)=O)NC(=O)[C@H](Cc2ccccc2)NC(=O)[C@H](Cc2ccccc2)NC1=O) [c[Pro-Arg-Phe-Phe-Asn-Glu-Phe-DPro]]			> 100 µM	< 5.5		> 100 µM	> 100 µM	< 5.5	60%					
cyclo(PRFFNDF[dP]) (SMILES N=C(N)NCCC[C@@H]1NC(=O)[C@@H]2CCCN2C(=O)[C@H]2CCCN2C(=O)[C@H](Cc2ccccc2)NC(=O)[C@H](CC(=O)O)NC(=O)[C@H](CC(N)=O)NC(=O)[C@H](Cc2ccccc2)NC(=O)[C@H](Cc2ccccc2)NC1=O) [c[Pro-Arg-Phe-Phe-Asn-Asp-Phe-DPro]]			> 100 µM	< 5.5			> 100 µM	< 5.5	65%					-25%
cyclo(PRFFNAA[dP]) (SMILES C[C@@H]1NC(=O)[C@H](CC(N)=O)NC(=O)[C@H](Cc2ccccc2)NC(=O)[C@H](Cc2ccccc2)NC(=O)[C@H](CCCNC(=N)N)NC(=O)[C@@H]2CCCN2C(=O)[C@H]2CCCN2C(=O)[C@H](C)NC1=O) [c[Pro-Arg-Phe-Phe-Asn-Ala-Ala-DPro]]			> 100 µM	6.1	> 100 µM		> 100 µM	8.16						-25%
cyclo(PRFFNHF[dP]) (SMILES N=C(N)NCCC[C@@H]1NC(=O)[C@@H]2CCCN2C(=O)[C@H]2CCCN2C(=O)[C@H](Cc2ccccc2)NC(=O)[C@H](Cc2c[nH]cn2)NC(=O)[C@H](CC(N)=O)NC(=O)[C@H](Cc2ccccc2)NC(=O)[C@H](Cc2ccccc2)NC1=O) [c[Pro-Arg-Phe-Phe-Asn-His-Phe-DPro]]			> 100 µM	< 5.5	2.6 µM	> 100 µM	> 100 µM	6.07						
cyclo(PRFFNGF[dP]) (SMILES N=C(N)NCCC[C@@H]1NC(=O)[C@@H]2CCCN2C(=O)[C@H]2CCCN2C(=O)[C@H](Cc2ccccc2)NC(=O)CNC(=O)[C@H](CC(N)=O)NC(=O)[C@H](Cc2ccccc2)NC(=O)[C@H](Cc2ccccc2)NC1=O) [c[Pro-Arg-Phe-Phe-Asn-Gly-Phe-DPro]]			> 100 µM	< 5.5	> 100 µM		> 100 µM	6.1						-35%
